B3: C-10 peptide (peptide)
peptide: GTINVHDVETQFNQYKTEAASRYNLTISDVSVSDV
notes: also called PSMGFR C-10; PSMGFR minus 10 amino acids from the C-terminus

The target in experiment [1] is T1, PSMGFR peptide.
T1 construct: also called MUC1* peptide
T1 peptide: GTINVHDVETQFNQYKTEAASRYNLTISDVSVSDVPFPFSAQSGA
The experiment is described as follows: ELISA, peptide on plate. Background: An ELISA detects its analyte on a solid surface through an enzyme-linked reagent.

The target in the next experiment is T2, N-30 peptide.
T2 peptide: SVSDVPFPFSAQSGA
The experiment is described as follows: ELISA, peptide on plate (FIG. 69).

A further experiment addresses T3, N-19/C-5 peptide.
T3 peptide: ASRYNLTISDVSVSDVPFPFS
The experiment is described as follows: ELISA, peptide on plate (FIG. 69).

A further experiment deals with T4, N-10/C-5 peptide.
T4 peptide: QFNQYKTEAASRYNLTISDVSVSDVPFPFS
The experiment is described as follows: ELISA, peptide on plate (FIG. 69).

Experiment [2] deals with B3. The experiment is described as follows: ELISA, peptide on plate (FIG. 69).
Experiment [3] has as its target T5, N-10 peptide.
T5 construct: also called PSMGFR N-10; PSMGFR minus 10 amino acids from the N-terminus
T5 peptide: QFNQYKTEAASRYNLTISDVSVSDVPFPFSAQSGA
The experiment is described as follows: ELISA, peptide on plate (FIG. 69).

The next experiment addresses T6, N-19 peptide.
T6 peptide: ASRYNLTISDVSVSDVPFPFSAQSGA
The experiment is described as follows: ELISA, peptide on plate (FIG. 69).

For the next experiment, the target named is T7, N-26 peptide.
T7 peptide: ISDVSVSDVPFPFSAQSGA
The experiment is described as follows: ELISA, peptide on plate (FIG. 69).

Experiment [4] has as its target T8, MUC1* expressed on HCT-116 cells transfected with MUC1* (extra cellular domain is just the PSMGFR sequence) (Homo sapiens (Human), UniProt P15941 1110-1255).
T8 construct: In Western blot rows the same protein stood denatured in cell lysate; also called HCT-MUC1*; HCT-FLR
T8 sequence: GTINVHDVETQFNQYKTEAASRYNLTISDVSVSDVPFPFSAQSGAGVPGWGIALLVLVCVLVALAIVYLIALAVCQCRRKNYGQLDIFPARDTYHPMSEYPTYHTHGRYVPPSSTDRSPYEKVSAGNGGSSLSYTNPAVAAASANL
The experiment is described as follows: denaturing Western blot of cell lysates, linear epitope test (FIG. 74). Here is the method: Antibodies were tested to determine whether they recognize a linear or a conformational epitope. Only antibodies that recognize a linear epitope work in Western blots when using denaturing gels. […] The antibodies tested for comparison are MNC2 and MNE6, which were known to only recognize a conformational epitope, SDIX which is a polyclonal antibody raised against PSMGFR and VU4H5, which is a commercially available monoclonal antibody that recognizes the tandem repeats of full-length MUC1 (FIG. 71A-71D). […] The SDIX polyclonal antibody recognizes HCT-MUC1* but not full-length MUC1 and VU4H5 only recognizes full-length MUC1. These same antibodies were also tested for their ability to work in Western blots of two breast cancer cell lines 1500, aka Zr-75-1, and T47D cells and show the same binding pattern (FIG. 71E-71H).
Antibodies that were raised against the PSMGFR peptide were tested the same way in Western blots (FIG. 72A-72P). […] Antibodies that were raised against the N+20/C-27 peptide were tested the same way in Western blots (FIG. 73A-73J). […] Antibodies 1E4 and 45C11 may recognize a conformational epitope. Antibodies that were raised against the N+9/C-9 peptide were tested the same way in Western blots (FIG. 74A-74H). […] These antibodies may recognize a conformational epitope.
For orientation: Immunoblotting shows a protein as a band on a membrane.

Experiment [5] concerns the target T9, N+20/C-27 peptide.
T9 peptide: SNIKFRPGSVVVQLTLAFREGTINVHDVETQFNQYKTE
The experiment is described as follows: ELISA, peptide on plate (FIG. 66).

The target of experiment [6] is T10, N+9/C-9 peptide.
T10 peptide: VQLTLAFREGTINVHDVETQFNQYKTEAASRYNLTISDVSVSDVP
The experiment is described as follows: ELISA, peptide on plate (FIG. 66).

For experiment [7], the target named is T8, MUC1* expressed on HCT-116 cells …. The experiment is described as follows: flow cytometry (FIG. 4D-4F). In general terms: Flow cytometry measures light scatter and fluorescence of single cells or particles in a stream.
Experiment [8] concerns the target B3. The experiment is described as follows: peptide ELISA.
Experiment [9] addresses T1, PSMGFR peptide. The experiment is described as follows: ELISA, peptide on plate (FIG. 2C).
For experiment [10], the target named is T9, N+20/C-27 peptide. The experiment is described as follows: ELISA, peptide on plate (FIG. 63). Here is the method: (§1) ELISA assays were performed to determine if, in addition to recognizing their immunizing peptide, they recognized PSMGFR, N-10 or C-10. In addition, they were tested for their ability to bind to N+20/C-27, N+9/C-9. We first did the ELISA assay on our set of reference antibodies, MNC2, MNE6, which we know are cancer-specific plus MNC3, which we know recognizes stem cells and progenitor cells (FIG. 63A-63B). None of the reference antibodies bound to the N+20/C-27 peptide. MNC2 and MNE6 cannot bind to PSMGFR peptides with 27, 10 or 9 C-terminal deletions, however, MNC3 binds to C-10 and to N+9/C-9 peptides.

Experiment [11] deals with T10, N+9/C-9 peptide. The experiment is described as follows: ELISA, peptide on plate (FIG. 63). As to the method: as §1
In experiment [12] the target is T5, N-10 peptide. The experiment is described as follows: ELISA, peptide on plate (FIG. 2B-2C).
In a further experiment the target is T11, dimeric NME1 (Homo sapiens (Human), UniProt P15531 1-152, limits assumed).
T11 construct: also called NM23-H1 dimers; dimeric NM23-H1
The experiment is described as follows: ELISA, peptide on plate (FIG. 2D). Here is the method:
(§2) FIGS. 2A-2I show results of ELISA assays. MUC1* peptides PSMGFR, PSMGFR minus 10 amino acids from the N-terminus aka N-10, or PSMGFR minus 10 amino acids from the C-terminus, aka C-10 are immobilized on the plate and the following are assayed for binding: NME7-AB (FIG. 2A), MNC2 monoclonal antibody (FIG. 2B), MNE6 monoclonal antibody (FIG. 2C), or dimeric NME1 (FIG. 2D). […] MUC1* peptides PSMGFR minus 10 amino acids from the N-terminus aka N-10, or PSMGFR minus 10 amino acids from the C-terminus, aka C-10, are immobilized on the plate and the following are assayed for binding: MNC3 (FIG. 2E) and MNC8 (FIG. 2F).

The next experiment concerns the target T12, NME7AB (Homo sapiens (Human), UniProt Q9Y5B8 92-376).
T12 construct: NME7A in the text appears to be NME7AB; also called NM23-H7; NME7A
T12 sequence: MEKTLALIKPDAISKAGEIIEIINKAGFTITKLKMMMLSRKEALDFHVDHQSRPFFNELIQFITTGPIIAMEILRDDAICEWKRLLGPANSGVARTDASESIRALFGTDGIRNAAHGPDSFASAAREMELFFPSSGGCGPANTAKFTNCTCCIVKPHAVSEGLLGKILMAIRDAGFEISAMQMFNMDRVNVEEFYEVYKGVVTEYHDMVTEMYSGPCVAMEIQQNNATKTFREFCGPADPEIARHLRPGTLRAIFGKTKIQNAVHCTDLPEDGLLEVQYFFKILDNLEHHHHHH
The experiment is described as follows: ELISA, peptide on plate (FIG. 2A). As to the method:
as §2

T11 sequence (P15531 whole entry): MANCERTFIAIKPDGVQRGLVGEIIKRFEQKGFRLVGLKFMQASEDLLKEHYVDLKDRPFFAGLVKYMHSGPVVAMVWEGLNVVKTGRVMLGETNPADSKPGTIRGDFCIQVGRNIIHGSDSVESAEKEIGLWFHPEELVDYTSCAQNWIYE

B1: monoclonal antibody 8A9 (antibody, V domains shown)
VH: EVELVESGGGLVQPGGSLRLSCATSGFTFTDHYMSWVRQPPGKALEWLGFIRNKANGYTTEYSASVKGRFTISRDNSQSILYLQMKTLRTEDSATYYCARPSDWDSWFAYWGQGTLVTVSA
VL: DVLMTQTPLSLPVSLGDQASISCRSSQSIVHSNGNTYLDWYLQKPGQSPKLLIYRVSNRFSGVPDRFSGSGSGTDFTLKISRVEAEDLGLYYCFQGSHVPWAFGGGTKLEIK
notes: Raised against the N+9/C-9 peptide; also called N+9/C-9 antibody 8A9
Regarding B1, the binding result with PSMGFR peptide [1], with N-30 peptide, in the experiment with N-19/C-5 peptide, in the experiment with N-10/C-5 peptide, in the experiment with C-10 peptide [2] and with N-10 peptide [3] was “no binding” throughout. Also, the binding result in the experiment with N-19 peptide is listed as “no binding”; with N-26 peptide, “no binding”; in [4] it was “no binding”; in the experiment with N+20/C-27 peptide [5] it was “no binding”; with N+9/C-9 peptide [6], “binds”.

B2: mouse monoclonal antibody MNE6 (antibody, V domains shown)
VH: EVKVVESGGDLVKPGGSLKLSCVVSGFTFSRYGMSWVRQTPGKRLEWVATISGGGTYIYYPDSVKGRFTISRDNAKNTLYLQMSSLKSEDTAMYHCTRDNYGRNYDYGMDYWGQGTSVTVSS
VL: QIVLTQSPAIMSASPGEEVTLTCSATSSVSYIHWFQQRPGTSPKLWIYSTSNLASGVPVRFSGSGYGTSYSLTISRMEAEDAATYYCQQRSSSPFTFGSGTKLEIK
notes: Mouse monoclonal raised against the PSMGFR peptide; also called Min-E6
B2: the binding result is “binds” in [7]; “no binding” with C-10 peptide [8]; “binds” in the experiment with PSMGFR peptide [9]; “no binding” with N+20/C-27 peptide [10]; “no binding (tested: 10 ug/mL or 1 ug/mL)” in the experiment with N+9/C-9 peptide [11]; “binds” with N-10 peptide [12].

For B3, the binding result with dimeric NME1 and with NME7AB was “no binding” throughout.

Source of the values: US20240390418A1 (MINERVA BIOTECHNOLOGIES, published 2024).
